Laboratory results taken from patent US20250326828A1 (STAIDSON BEIJING BIOPHARMACEUTICALS, published 2025).
Read-outs that look alike come from different tables or passages of the source.

T1: rhesus monkey GDF15-hFc (rhesus monkey)
T1 chain: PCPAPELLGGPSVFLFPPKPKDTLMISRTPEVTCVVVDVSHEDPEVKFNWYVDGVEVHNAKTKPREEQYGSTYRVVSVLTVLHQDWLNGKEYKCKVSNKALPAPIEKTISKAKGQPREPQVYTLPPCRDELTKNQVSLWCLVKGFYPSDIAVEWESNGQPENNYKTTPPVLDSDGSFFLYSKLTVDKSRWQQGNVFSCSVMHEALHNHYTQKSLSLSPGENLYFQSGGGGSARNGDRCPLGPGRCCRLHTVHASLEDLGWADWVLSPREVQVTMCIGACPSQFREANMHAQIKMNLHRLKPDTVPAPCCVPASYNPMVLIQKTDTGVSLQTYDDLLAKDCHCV

T2: mouse GDF15-hFc (mouse)
T2 chain: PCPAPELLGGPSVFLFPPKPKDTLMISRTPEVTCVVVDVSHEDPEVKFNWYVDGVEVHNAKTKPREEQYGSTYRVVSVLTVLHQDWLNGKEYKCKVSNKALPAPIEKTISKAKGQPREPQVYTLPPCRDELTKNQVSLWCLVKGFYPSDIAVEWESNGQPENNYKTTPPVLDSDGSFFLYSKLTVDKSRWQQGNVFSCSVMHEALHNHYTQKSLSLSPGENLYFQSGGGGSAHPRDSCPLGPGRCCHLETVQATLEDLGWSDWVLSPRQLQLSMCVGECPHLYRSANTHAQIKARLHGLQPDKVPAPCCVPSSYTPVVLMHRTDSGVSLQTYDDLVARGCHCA

T3: human GDF15-hFc (human)
T3 construct: Recombinant hFc-tagged fusion protein expressed in 293F cells
T3 chain: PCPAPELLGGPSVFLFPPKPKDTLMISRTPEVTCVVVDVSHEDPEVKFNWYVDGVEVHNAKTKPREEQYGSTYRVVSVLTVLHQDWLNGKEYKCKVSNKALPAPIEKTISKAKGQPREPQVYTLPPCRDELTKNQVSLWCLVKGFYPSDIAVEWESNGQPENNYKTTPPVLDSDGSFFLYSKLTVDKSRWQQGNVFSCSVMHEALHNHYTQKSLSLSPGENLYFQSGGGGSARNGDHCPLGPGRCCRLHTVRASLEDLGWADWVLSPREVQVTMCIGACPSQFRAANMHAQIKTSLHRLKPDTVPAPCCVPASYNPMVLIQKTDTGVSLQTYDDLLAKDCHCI

T4: human GDF15-his (human)
T4 chain: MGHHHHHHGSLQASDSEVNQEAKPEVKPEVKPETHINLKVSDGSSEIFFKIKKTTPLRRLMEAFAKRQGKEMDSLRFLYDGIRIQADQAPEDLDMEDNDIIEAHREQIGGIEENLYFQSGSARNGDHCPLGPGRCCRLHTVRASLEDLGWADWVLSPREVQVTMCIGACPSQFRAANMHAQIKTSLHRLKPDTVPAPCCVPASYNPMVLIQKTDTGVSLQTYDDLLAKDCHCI


Key:
[1] = target: T1, rhesus monkey GDF15-hFc; assay: SPR, Biacore 8K; antibody on CM5 chip
Method: (§1) The binding affinity of anti-GDF15 antibodies for human GDF15, rhesus monkey GDF15, mouse GDF15 were characterized using Biacore 8K (GE). The anti-GDF15 antibodies were stabilized on sensor chip CM5. The binding affinity of antibody for GDF15 proteins from different species at various concentrations was measured. Using the SPR technology, the association and dissociation rates were measured, and binding affinity was determined.

[2] = target: T2, mouse GDF15-hFc; assay: SPR, Biacore 8K; antibody on CM5 chip
Method: as §1

[3] = target: T3, human GDF15-hFc; assay: SPR, Biacore 8K; antibody on CM5 chip
Method: as §1

[4] = target: T4, human GDF15-his; assay: cell-based or functional assay
[5] = target: T4, human GDF15-his; assay: ELISA as in Example 2: plate coated with the antibody, graded human GDF15-his, anti-his-HRP, OD450; the sheet's x axis reads 'Log GDF15 Antibody (nM)'
Method: (§2) ELISA binding assay: The purified monoclonal antibody was subjected to a binding assay with human GDF15-his protein. The binding assay was designed to characterize the binding activity of the anti-GDF15 antibody. Briefly, a 96-well plate was coated with anti-GDF15 antibody (200 ng/well) and incubated for 1 hour at 37° C. The plates were washed with PBST and then blocked for 1 hour at room temperature using 1% BSA. Then 100 µl/well of gradient-diluted human GDF15-his solution (dose range 0-50 μg/ml) was added into plates. After incubation, 100 μl of anti-his tag secondary antibody (anti-his-HRP (1:2000), Bersee, cat #BHR790) was added to each well. Finally, the TMB solution (100 μl/well) was added. 2M H₂SO₄ was used to stop the reaction. The OD450 was measured, and the binding curves were generated by PRISM software to analyze the affinity of candidate antibodies to human GDF15 antigen, and EC₅₀ value were calculated.

[6] = target: T3, human GDF15-hFc; assay: competition ELISA as in Example 2; GFRAL-his coated, antibody titrated against human GDF15-hFc
Method: The ELISA assay was performed to measure the inhibitory activity of anti-GDF15 antibodies in concentration gradients to block GDF15 binding to GFRAL receptor. IC₅₀ values were used as a measure for neutralizing activity of candidate molecules. Briefly, 96-well plates were coated with 100 ng/well of GFRAL-his protein (SEQ ID NO: 74), and incubated for 1 h at 37° C. The plates were washed with PBST and then blocked for 1 hour at 37° C. with 1% BSA. Gradient-diluted antibodies (dose range 0˜10 μg/ml) was added into each well, immediately followed by equal volume of human GDF15-hFc protein ([…]). After incubation and washing, 100 μl of anti-human IgG secondary antibody (goat anti-human IgG-HRP, Sigma, A8667) was added to each well. Finally, TMB solution (100 μl/well) was added. 2M H₂SO₄ was used to stop the reaction. The OD450 was measured and the binding curve was generated by PRISM to calculate the IC₅₀ value.

[7] = target: T4, human GDF15-his; assay: ELISA as in Example 2: plate coated with the antibody, graded human GDF15-his, anti-his-HRP, OD450; the sheet's x axis reads 'Log GDF15 Antibody (nM)'
Method: as §2

[8] = target: T4, human GDF15-his; assay: cell-based or functional assay
[9] = target: T4, human GDF15-his; assay: ELISA as in Example 2: plate coated with the antibody, graded human GDF15-his, anti-his-HRP, OD450; the sheet's x axis reads 'Log GDF15 antibody (nM)'
Method: as §2

Binder	Kd [1] [nM]	koff [1] [s⁻¹]	kon [1] [M⁻¹ s⁻¹]	Kd [2] [nM]	koff [2] [s⁻¹]	kon [2] [M⁻¹ s⁻¹]	Kd [3] [nM]	koff [3] [s⁻¹]	kon [3] [M⁻¹ s⁻¹]	IC50 (read off the curve), SRE-luciferase signal in 293T-GFRAL/RET-Luc cells with human GDF15-his [4] [nM]	EC50 (read off the curve) [5] [nM]	IC50 [6] [nM]	EC50 (read off the curve) [7] [nM]	IC50 (read off the curve), SRE-luciferase signal in 293T-GFRAL/RET-Luc cells with human GDF15-his [8] [nM]	EC50 (read off the curve) [9] [nM]
hum_R37-5 (antibody, V domains shown, Tested in human IgG1 format) VH: EVQLVESGGGLVKPGGSLRLSCAASGFSLSNYYMSWVRQAPGKGLEWVGMISFSGTTYATWAKGRFTISRDDSKNTVYLQINSLKTEDTAVYFCARVVYAGWTYPLGIWGQGTLVTVSS VL: DIQLTQSPSSLSASVGDRVTITCQASQSISSVLSWYQQKPGKPPKALIYEASILASGVPSRFSGSGSGTDFTLTISSLQPEDFATYYCQANYDVYNYGNPFGGGTKVEIK	1.23	0.00421	3.43e+06	106	0.000869	8210	0.584	6.95e-05	119000	~0.1	~60	1.9	–	–	–
hum_R37-8 (antibody, V domains shown, Tested in human IgG1 format) VH: EVQLVESGGGLVKPGGSLRLSCAASGFSLSNYYMSWVRQAPGKGLEWIGMISFSGTTYATWAKGRFTISKDSSTVYLQINSLKTEDTAVYFCARVVYAGWTYPLGIWGQGTLVTVSS VL: DIQMTQSPSSLSASVGDRVTITCQASQSISSVLSWYQQKPGKPPKALIYEASILASGVPSRFSGSGSGTDFTLTISSLQPEDFATYYCQANYDVYNYGNPFGGGTKVEIK	1.09	0.002	1.84e+06	101	0.0017	16800	0.607	8.46e-05	139000	~0.1	–	1.59	~80	–	–
hum_R37-2 (antibody, V domains shown, Tested in human IgG1 format) VH: EVQLVESGGGLVKPGGSLRLSCAASGFSLSNYYMSWVRQAPGKGLEWIGMISFSGTTYATWAKGRFTISKDSSTVYLQINSLKTEDTAVYFCARVVYAGWTYPLGIWGQGTLVTVSS VL: DIQLTQSPSSLSASVGDRVTITCQASQSISSVLSWYQQKPGKPPKALIYEASILASGVPSRFSGSGSGTDFTLTISSLQPEDFATYYCQANYDVYNYGNPFGGGTKVEIK	1.28	0.00263	2.06e+06	118	0.00175	14800	1.07	0.000137	129000	~0.1	~60	1.72	–	–	–
hum_R37-13 (antibody, V domains shown, Tested in human IgG1 format) VH: EVQLVESGGGLVKPGGSLRLSCAASGFSLSNYYMSWVRQAPGKGLEWIGMISFSGTTYATWAKGRFTISKDSSKNTVYLQINSLKTEDTAVYFCARVVYAGWTYPLGIWGQGTLVTVSS VL: DIQMTQSPSSLSASVGDRVTITCQASQSISSVLSWYQQKPGKPPKLLIYEASILASGVPSRFSGSGSGTDFTLTISSLQPEDFATYYCQANYDVYNYGNPFGGGTKVEIK	–	–	–	–	–	–	–	–	–	–	–	2.06	–	~0.1	~200
hum_R37-11 (antibody, V domains shown, Tested in human IgG1 format) VH: EVQLVESGGGLVKPGGSLRLSCAASGFSLSNYYMSWVRQAPGKGLEWVGMISFSGTTYATWAKGRFTISRDDSKNTVYLQINSLKTEDTAVYFCARVVYAGWTYPLGIWGQGTLVTVSS VL: DIQMTQSPSSLSASVGDRVTITCQASQSISSVLSWYQQKPGKPPKALIYEASILASGVPSRFSGSGSGTDFTLTISSLQPEDFATYYCQANYDVYNYGNPFGGGTKVEIK	–	–	–	–	–	–	–	–	–	–	–	1.9	~80	~0.1	–
hum_R37-7 (antibody, V domains shown, Tested in human IgG1 format) VH: EVQLVESGGGLVKPGGSLRLSCAASGFSLSNYYMSWVRQAPGKGLEWIGMISFSGTTYATWAKGRFTISKDSSKNTVYLQINSLKTEDTAVYFCARVVYAGWTYPLGIWGQGTLVTVSS VL: DIQMTQSPSSLSASVGDRVTITCQASQSISSVLSWYQQKPGKPPKALIYEASILASGVPSRFSGSGSGTDFTLTISSLQPEDFATYYCQANYDVYNYGNPFGGGTKVEIK	–	–	–	–	–	–	–	–	–	~0.1	–	2.31	~80	–	–
hum_R37-9 (antibody, V domains shown, Tested in human IgG1 format) VH: EVQLVESGGGLVKPGGSLRLSCAASGFSLSNYYMSWVRQAPGKGLEWIGMISFSGTTYATWAKGRFTISKDDSKNTVYLQINSLKTEDTAVYFCARVVYAGWTYPLGIWGQGTLVTVSS VL: DIQMTQSPSSLSASVGDRVTITCQASQSISSVLSWYQQKPGKPPKALIYEASILASGVPSRFSGSGSGTDFTLTISSLQPEDFATYYCQANYDVYNYGNPFGGGTKVEIK	–	–	–	–	–	–	–	–	–	–	–	1.82	~80	~0.2	–
